Laboratory results: paper PMC3898896 (Journal of Molecular Biology, 2013)

Target: the molecule itself
Experiment: crystal structure

B1: N-terminal dimerization domain of S. pombe Cdc23 (Cdc23^N19-302,Y302A) (domain or fragment, UniProt O94556 19-302, looked up)
chain: QLREIRNCLLKCISECSERGLVYAVRWAAEMLNGMNPIEMEHIPFSSTPTGEFDLDPDMANEKLLEVEEKNIYLLAKSYFDCKEFERAAYTLQNCKSSKSIFLRLYSKYLAGEKKSEEENETLLNTNLTLSSTNREFYYISEVLESLHYQGNKDPYLLYLSGVVYRKRKQDSKAIDFLKSCVLKAPFFWSAWLELSLSIDSLETLTTVVSQLPSTHIMTKIFYVYASHELHQVNSSAYEKLAEAEIIFPNSRYLKTQRALLTYDSRDFDEAESLFENILTNDPA
  stoichiometry N: 2
